In article PMC6375885, “Specific Inhibition of Soluble γc Receptor Attenuates Collagen-Induced Arthritis by Modulating the Inflammatory T Cell Responses” (Frontiers in Immunology, 2019):

Biological target: the molecule itself
Assay: immunoprecipitation, non-reducing SDS-PAGE and immunoblot; culture supernatant of transfected HEK293T cells precipitated with α-mouse IL-2Rγ antibody and protein A/G agarose; resolved under non-reducing conditions (DTT-); blotted with biotinylated α-mouse IL-2Rγ antibody; dimer and monomer bands

B1: soluble common gamma chain (sγc), wild type (natural protein)
chain: WSSKVLMSSANEDIKADLILTSTAPEHLSAPTLPLPEVQCFVFNIEYMNCTWNSSSEPQATNLTLHYRYKVSDNNTFQECSHYLFSKEITSGCQIQKEDIQLYQTFVVQLQDPQKPQRRAVQKLNLQNLVIPRAPENLTLSNLSESQLELRWKSRHIKERCLQYLVQYRSNRDRSWTELIVNHEPRFSLPSVDELKRYTFRVRSRYNPICGSSQQWSKWSQPVHWGSHTVEECLQFPPSRI
notes: signal peptide in the construct; common gamma chain (γc, IL-2Rγ), the part before the new C-terminal 9 a.a. of the alternatively spliced soluble form; not part of the membrane form of γc; Secreted; found as a disulfide-linked dimer and as a monomer in the supernatant; The reverse primer has no stop codon, so a C-terminal tag from the vector may follow (surmise; also called WT sγc; soluble γc; …)
  stoichiometry N: 2
